These results are taken from the nanobody polyreactivity screen of Harvey et al. (2022).

This data set is described as follows: yeast display, Sf9 membrane polyspecificity reagent, FACS + sequencing; frameworks hold sequencing errors. The gist of the method:
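Sorting gates, low and high (top ~1%), were placed on anti-HA fluorescence to track expression and on streptavidin fluorescence to track reagent binding. A clone's polyreactivity label is taken from the gate it came out of. The reagent was 10% biotinylated, detergent-solubilized Sf9 membrane, applied for 1 hour at 4 °C to galactose-induced yeast display cells.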
Take “QVQLVESGGGLVQAGGSLRLSCAASGSIFAANAMGWYRQAPGKERELVAAISWSGGSTYADSVKGRFTISRDNAKNTVYLQMNSLKPEDTAVYYCNAYVYVGTGRGYDTLDYWGQGTQVTVSS”: the “polyreactivity (PSR sort gate)” value is recorded as “low polyreactivity”.
As for “QVQLVESGGGLVQAGGSLRLSCAASGSIFAANAMGWYRQAPGKERELVAAITSGGSTDYADSVKGRFTISRDNAKNTVYLEMNSLKPEDTAVYYCAKGYVPYAIFDYWGQGTQVTVSS”, the “polyreactivity (PSR sort gate)” value was “low polyreactivity”.
In the case of “QVQLVESGGGLVQAGGSLRLSCAASGSIFAAYTMGWYRQAPGKERELVAAISVSTVSTYYADSVKGRFTISRDNAKISVYLQMNSLKPEDTAVYYCNADSTTQDYDYWGQGTQVTVSS”, the “polyreactivity (PSR sort gate)” value was “low polyreactivity”.
For the sequence “QVQLVESGGGLVQAGGSLRLSCAASGSIFAAYTMGWYRQAPGKERELVAAISVSTVSTYYADSVKGRFTISRDNAKNTVYIQMNSLKPEDTAVYYCNADATDSYPEKDEHDSWGQGTQVTVSS”, the “polyreactivity (PSR sort gate)” value was “low polyreactivity”.
“QVQLVESGGGLVQAGGSLRLSCAASGSIFADNAMGWYRQAPGKEMELVADISWSGGRTYYADSVKGRFTISRDNAKNTVYLQMNSLKPEDTAVYYCAARYRDYRAGFDYWGQGTQLTVSS”: the “polyreactivity (PSR sort gate)” value is recorded as “high polyreactivity”.
As for “QVQLVESGGGLVQAGGSLRLSCAASGSIFADYAMGWYRQAPGKERELVAVITSGGRTNYADSVKGRFTISRDNAKNTVYLQMNSLKPEDTAVYYCDTRRYRYYAYRNYYYWGQGTQVTVSS”, the “polyreactivity (PSR sort gate)” value is listed as “high polyreactivity”.
“QVQLVESGGGLVQAGGSLRLSCAASGSIFADYAMGWYRQAPGKERELVAVITSSGGSTNYADSVKGRFTISRDNAKNTVYLQMNSLKPEDTAVYYCNRRPYPSYDYWGQGTQVTVSS”: the “polyreactivity (PSR sort gate)” value is recorded as “low polyreactivity”.
As to “QVQLVESGGGLVQAGGSLRLSCAASGSIFADYVMGWYRQAPGKERELVAAITRRGRTYYSDSVKGRFTISRDNAMNTVYIQMNILKPEDSAVYYCDKVASGKIDSWGQGTQVTVSS”, the “polyreactivity (PSR sort gate)” value is “low polyreactivity”.
As to “QVQLVESGGGLVQAGGSLRLSCAASGSIFAFYTMGWYRQAPGKERELVATITRSGRTNYADSVKGRFTISRDNAKNTVYLQMNSLKPEDTAVYYCAAGYLSGNYARYGYWGQGTQVTVSS”, the “polyreactivity (PSR sort gate)” value is on record as “high polyreactivity”.
The result for “QVQLVESGGGLVQAGGSLRLSCAASGSIFAGYAIGWYRQAPGKERELVAAISWSGGGTYYADSVKGRFTISRDNAKNTVYLQMNSLKPEDTAVYYCNAYGYRHRGNGYWGQGTQVTVSS” reads “high polyreactivity”; that for “QVQLVESGGGLVQAGGSLRLSCAASGSIFAGYAMGWYRQAPGKERELVATITSSSRTNYADSVKGRFTISRDNAKNTVYLQMNSLKPEDTAVYYCAARGRYVIDGYRMYYWGQGTQVTVSS”, “high polyreactivity”.
Turning to “QVQLVESGGGLVQAGGSLRLSCAASGSIFAGYAMGWYRQAPGNERELVAAISNRGSSTNYADSVKGRFTISRDNAKITVYLQMNSLKPEDTAVYYCAVGPIRKYDYWGQGTQVTVSS”, the “polyreactivity (PSR sort gate)” value is “high polyreactivity”.
For “QVQLVESGGGLVQAGGSLRLSCAASGSIFALYAMGWYRQAPGKERELVAAISWRAGGTYYADSVKGRFTISRDNAKNTVYLQMNSLKPEDTAVYYCAAEISLYYYGDYEYWGVGTQVTVSS”, the “polyreactivity (PSR sort gate)” value is on record as “high polyreactivity”.
Take “QVQLVESGGGLVQAGGSLRLSCAASGSIFALYTMGWYRPAPGKERELVAAISRRGGNTYYADSVKGRFTISRDNAKNTVYLQMNSLKPEDTAVYYCNADRLRSTHDYWGQGTQVTVSS”: the “polyreactivity (PSR sort gate)” value was “high polyreactivity”.
Turning to “QVQLVESGGGLVQAGGSLRLSCAASGSIFAPYAMGWYRQAPGKERELVAAINNNGGRTYYADSVKGRFTISRDNAKNTVYLQMNSLKPEDTAVYYCAKELGYDWYYRPYGYWGQGTQVTVSS”, the “polyreactivity (PSR sort gate)” value was “low polyreactivity”.
“QVQLVESGGGLVQAGGSLRLSCAASGSIFAPYAMGWYRQAPGKERELVAAISTGGRTHYADSVKGRFTISRDNAKNTVYLHMNSLKPEDTAVYYCAAARPTAGVIRPHYYWGQGTQVTVSS”: the “polyreactivity (PSR sort gate)” value is “high polyreactivity”.
In the case of “QVQLVESGGGLVQAGGSLRLSCAASGSIFAPYAMGWYRQAPGKEREVVAAITSGVGSTYYADSVKGRFTISRDNAKNTVYLQMNSLKPEDTAVYYCAADSSYLTYWEYDYWGQGSQVTVSS”, the “polyreactivity (PSR sort gate)” value is “low polyreactivity”.
As to “QVQLVESGGGLVQAGGSLRLSCAASGSIFAPYAMGWYRQAPGTERELVAAITWSGDSTYYADSVKGRFTISRDNAKNTVYLQMNSLKPEDTAVYYCATEEVYGQGNYWGQGTQVTVSS”, the “polyreactivity (PSR sort gate)” value was “low polyreactivity”.
The result for “QVQLVESGGGLVQAGGSLRLSCAASGSIFAPYDMGWYRQAPGKERELVAAIDWGGDSTYYADSVKGRFTISRDNAKNTVYLQMNSLKPEDTAVYYCAADDLWLSYRTEYDYYYWGQGTQVTVSS” reads “low polyreactivity”; that for “QVQLVESGGGLVQAGGSLRLSCAASGSIFAQNAIGWYRQAPGKERELVAAIDLNGGSTYYADSVKGRFTISRDNAKNTVYLQLNSQKPEDTAVYYCAVYYGHSSVIRSSPEYDSWGQGTQVTVSS”, “low polyreactivity”; that for “QVQLVESGGGLVQAGGSLRLSCAASGSIFAQYAMGWYRQAPGKERELVATISSVGSTNYADSVKGRFTISRDNAKNSVYLLMNSLKPEDTAVYYCNAVRSGWGYFYGLNSWGQGTQVTVSS”, “low polyreactivity”.
For the sequence “QVQLVESGGGLVQAGGSLRLSCAASGSIFAQYAMGWYRQAPGKETELVAAISYRGGRTYYADSVKGRFTISRDNAKNTVYLQMNSLKPEDTAVYYCNADSSSYSSDLGYDYWGQGTQVTVSS”, the “polyreactivity (PSR sort gate)” value is reported as “low polyreactivity”.
The result for “QVQLVESGGGLVQAGGSLRLSCAASGSIFARNAMGSYRQAPGKERELVAAITVRGRTNYADSVKGRFTISRDNAKNTVYLQMNSLKPDDTAVYYCAASLWDDDSRLMYYWGQGTQVTVSS” reads “high polyreactivity”; that for “QVQLVESGGGLVQAGGSLRLSCAASGSIFARYAMGWYRQAPGKERELDAAISGRGGSTYYADSVKGRFTISRDNAKNTVYLQMNSLKPEDTAVYYCNAVGHTSIRRALDILDYWGQGTQVTVSS”, “high polyreactivity”; that for “QVQLVESGGGLVQAGGSLRLSCAASGSIFARYAMGWYRQAPGKERELVAAISSSGSRTYYADSVKGRFTISRDNAKNTVYLQMNSLKPEDTAVYYCATRYGSASGREYEYWGQGTQVTVSS”, “high polyreactivity”.
On to “QVQLVESGGGLVQAGGSLRLSCAASGSIFARYVMGWYRQAPGKERELVAAISRGGRTKYADSVKGRFTISRDNAKNTVYLQMNSLKPEDTAVYYCAASGSQPDDYWGQGTQVTVSS”, for which the “polyreactivity (PSR sort gate)” value is listed as “high polyreactivity”.
As to “QVQLVESGGGLVQAGGSLRLSCAASGSIFASNAMGWYRQAPGKERELVAAITDSGSTNYADSVKGRFTISRDNAKNTVYLQMNSLKREDTAVYYCDWSYYVWRRYRVARYDSWGQGTQVTVSS”, the “polyreactivity (PSR sort gate)” value is reported as “low polyreactivity”.
Consider “QVQLVESGGGLVQAGGSLRLSCAASGSIFASNAMGWYRQAPGKERGLVAAITYNGGSTYYADSVKGRFTISRDNAKNTVYLQMNSLKPEDTAVYYCAALGTRRPHIPRGDYWGQGTQVTVSS”, for which the “polyreactivity (PSR sort gate)” value is listed as “low polyreactivity”.
On to “QVQLVESGGGLVQAGGSLRLSCAASGSIFASYAMGWYRQAPGKERELVAVITRSGGSTYYADSVKGRFTISRDNAKNTVYLQMNSLKPEDTAVYYCAAQYGRTYYSRREYWGQGTQVTVSS”, for which the “polyreactivity (PSR sort gate)” value is “high polyreactivity”.
The result for “QVQLVESGGGLVQAGGSLRLSCAASGSIFASYDMGWYRQAPGKERELVAAISYRGGGTYYADSVKGRVTISRDNAKNTVYLQMNSLKPEDTAVYYCNADTYSNTYRAYDYWGQGTQVTVSS” reads “low polyreactivity”.
The result for “QVQLVESGGGLVQAGGSLRLSCAASGSIFASYVMGWYRQAPGKERELVAAITSRGTSTYYADSVKGRFTISRDNAKNTVYLHMNSLNPEDTAVYYCAARLYGSAPQHEYWGQGTQVTVSS” reads “low polyreactivity”; that for “QVQLVESGGGLVQAGGSLRLSCAASGSIFAVNAMGWYRQAPGKERELVAAIDWSDGITYYADSVKGRFTISRDNAKNTVYLQMNSLKPEDTAVYYCAADATAYGWYVEQFSFYDNDYWGQGTEVTVSS”, “high polyreactivity”; that for “QVQLVESGGGLVQAGGSLRLSCAASGSIFAVNAMGWYRQAPGKERELVAAISWNGGSTYYADSVKGRFTISRDNAKNTVYLQMNSLKPEDTAVYYCATVRYKYYWSYYRYGYWGQGTQVTVSS”, “high polyreactivity”.
With “QVQLVESGGGLVQAGGSLRLSCAASGSIFAVNTMGWYIQAPGKERELVAAISQRGSSTYYADSVKGRFTISRDNAKNTVYLQMNSLKPEDTAVYYCAKRFIYGRYNYWGQGTQVTVSS”, the “polyreactivity (PSR sort gate)” value is “high polyreactivity”.
Turning to “QVQLVESGGGLVQAGGSLRLSCAASGSIFAVYAMGWSRQAPGKERELVAAITTSGGSTYYADSVKGRFTISRDNAKNTVYLQMNSLKPEDTAVYYCAAYRGTLLTAYDYWGQGTQVTVSS”, the “polyreactivity (PSR sort gate)” value is given as “low polyreactivity”.
For “QVQLVESGGGLVQAGGSLRLSCAASGSIFAVYAMGWYRQAPGKEREFVARISWGGGRTYYADSVKGRCTISRDNAKNPVYLQMNSLKPEDTAVYYCAATFRARPRENYWGQGTQVTVSS”, the “polyreactivity (PSR sort gate)” value was “high polyreactivity”.
Take “QVQLVESGGGLVQAGGSLRLSCAASGSIFAVYVMGWYRQAPGKERDFVAAITYSGTSTNYADSVKGRFTISRDNAKNTVYLQMNSLKPEDTAVFYCAADVRSSNGHYTLYDYWGQGTQVTVSS”: the “polyreactivity (PSR sort gate)” value was “high polyreactivity”.
For the sequence “QVQLVESGGGLVQAGGSLRLSCAASGSIFAWYVMGWYRQAPGKERELVAGIDTSGGSTFYADSVKGRFTISRDNAKNTVYLQMNSLKPEDTAVYYCAADTWFRGPWEFDYWGQGTQVTVSS”, the “polyreactivity (PSR sort gate)” value is “low polyreactivity”.
For “QVQLVESGGGLVQAGGSLRLSCAASGSIFAYAMGWYRQAPGKERELVAGISSSGGRTYYADSVKGRFTISRDNAKNTVYLQMISLKPEDTAVYYCAARYPNVYQSETYFYWGQGTQVNVSS”, the “polyreactivity (PSR sort gate)” value is reported as “high polyreactivity”.
In the case of “QVQLVESGGGLVQAGGSLRLSCAASGSIFAYNAMGWYIQSPGTERELVAAISSSGGSTTYADSVKGRFTISRDNAKYTVYLQMNSLKPEDTAVYYCNAAWRRSRYYYWGQGTQVTVSS” it was “high polyreactivity”; in that of “QVQLVESGGGLVQAGGSLRLSCAASGSIFAYNAMGWYRQAPGKEREFVAVITRSDDSTYADSVKGRFTISRDNAKNSVYLQMNSLKPEDTAVYYCAAQPFVIDGGYRGDYWGQGTQVTVSS”, “low polyreactivity”.
